In the supplement of paper PMC10065799, “High-throughput profiling of sequence recognition by tyrosine kinases and SH2 domains using bacterial peptide display” (eLife, 2023):

How the values were obtained:
Hck = Hck (UniProt P08631); assay: phosphorylation enrichment, bacterial display (enrichment ratio); higher = better substrate or ligand; peptides without Tyr show the background
EPHB2 = EPHB2 (UniProt P29323); assay: as above
Fer (mouse) = assay: as above
Fyn = Fyn (UniProt P06241); assay: as above
EPHB1 = EPHB1 (UniProt P54762); assay: as above
Fes = Fes (UniProt P07332); assay: as above
AncSZ = assay: as above
FGFR1 = FGFR1 (UniProt P11362); assay: as above
c-Abl (mouse) = assay: as above
FGFR3 = FGFR3 (UniProt P22607); assay: as above
Jak2 = Jak2 (UniProt O60674); assay: as above
c-Src = assay: as above
MERTK = MERTK (UniProt Q12866); assay: as above
c-Src SH2 = assay: SH2 binding enrichment of the phosphorylated peptide, bacterial display (enrichment ratio); higher = better substrate or ligand; peptides without Tyr show the background
SHP2-C SH2 = assay: as above
Grb2 SH2 = Grb2 SH2 (UniProt P62993); assay: as above
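Throughout, for SH2 binding enrichment of the phosphorylated peptide, bacterial display: peptide library displayed on the E. coli surface as eCPX fusions, selected cells deep-sequenced, score is each peptide's frequency after selection divided by its frequency in the input.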
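Throughout, for phosphorylation enrichment, bacterial display: 11-residue human phosphosite peptides and single-mutation variants displayed on the E. coli surface, counted by deep sequencing, each peptide's frequency after selection divided by its frequency in the unselected input library; frequency after pTyr selection over input frequency; kinase dosed for 20-30% of maximal phosphorylation in three min.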

FGFR3, sequence (P22607 whole entry, looked up): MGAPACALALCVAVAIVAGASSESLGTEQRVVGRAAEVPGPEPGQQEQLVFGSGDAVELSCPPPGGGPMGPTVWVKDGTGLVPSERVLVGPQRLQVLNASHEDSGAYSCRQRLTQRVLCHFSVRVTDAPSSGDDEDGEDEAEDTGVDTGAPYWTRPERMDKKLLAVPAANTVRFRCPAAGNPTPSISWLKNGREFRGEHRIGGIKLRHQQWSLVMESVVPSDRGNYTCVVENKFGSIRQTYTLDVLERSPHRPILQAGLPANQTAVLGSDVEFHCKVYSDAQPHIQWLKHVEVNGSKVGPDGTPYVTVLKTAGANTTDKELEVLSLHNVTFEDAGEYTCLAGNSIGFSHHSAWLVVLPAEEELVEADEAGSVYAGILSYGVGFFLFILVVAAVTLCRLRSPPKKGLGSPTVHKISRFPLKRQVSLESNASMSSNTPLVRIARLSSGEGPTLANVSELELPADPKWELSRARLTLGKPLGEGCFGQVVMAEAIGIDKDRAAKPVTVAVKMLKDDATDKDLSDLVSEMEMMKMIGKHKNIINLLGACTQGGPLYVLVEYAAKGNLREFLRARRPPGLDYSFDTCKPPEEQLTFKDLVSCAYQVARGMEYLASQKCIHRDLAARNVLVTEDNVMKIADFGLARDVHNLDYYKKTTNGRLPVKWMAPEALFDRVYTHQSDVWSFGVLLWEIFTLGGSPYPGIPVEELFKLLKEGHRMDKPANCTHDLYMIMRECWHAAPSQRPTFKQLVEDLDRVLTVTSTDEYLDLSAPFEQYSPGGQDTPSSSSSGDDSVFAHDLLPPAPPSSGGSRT
Grb2 SH2, sequence (P62993 whole entry, looked up, the tested form may be a part): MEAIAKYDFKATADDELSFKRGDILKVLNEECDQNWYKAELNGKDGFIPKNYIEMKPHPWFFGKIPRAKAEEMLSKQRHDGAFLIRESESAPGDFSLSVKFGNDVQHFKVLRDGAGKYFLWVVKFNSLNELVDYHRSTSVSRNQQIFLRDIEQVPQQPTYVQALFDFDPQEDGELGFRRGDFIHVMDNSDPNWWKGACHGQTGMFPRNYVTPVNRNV
Jak2, sequence (O60674 whole entry, looked up): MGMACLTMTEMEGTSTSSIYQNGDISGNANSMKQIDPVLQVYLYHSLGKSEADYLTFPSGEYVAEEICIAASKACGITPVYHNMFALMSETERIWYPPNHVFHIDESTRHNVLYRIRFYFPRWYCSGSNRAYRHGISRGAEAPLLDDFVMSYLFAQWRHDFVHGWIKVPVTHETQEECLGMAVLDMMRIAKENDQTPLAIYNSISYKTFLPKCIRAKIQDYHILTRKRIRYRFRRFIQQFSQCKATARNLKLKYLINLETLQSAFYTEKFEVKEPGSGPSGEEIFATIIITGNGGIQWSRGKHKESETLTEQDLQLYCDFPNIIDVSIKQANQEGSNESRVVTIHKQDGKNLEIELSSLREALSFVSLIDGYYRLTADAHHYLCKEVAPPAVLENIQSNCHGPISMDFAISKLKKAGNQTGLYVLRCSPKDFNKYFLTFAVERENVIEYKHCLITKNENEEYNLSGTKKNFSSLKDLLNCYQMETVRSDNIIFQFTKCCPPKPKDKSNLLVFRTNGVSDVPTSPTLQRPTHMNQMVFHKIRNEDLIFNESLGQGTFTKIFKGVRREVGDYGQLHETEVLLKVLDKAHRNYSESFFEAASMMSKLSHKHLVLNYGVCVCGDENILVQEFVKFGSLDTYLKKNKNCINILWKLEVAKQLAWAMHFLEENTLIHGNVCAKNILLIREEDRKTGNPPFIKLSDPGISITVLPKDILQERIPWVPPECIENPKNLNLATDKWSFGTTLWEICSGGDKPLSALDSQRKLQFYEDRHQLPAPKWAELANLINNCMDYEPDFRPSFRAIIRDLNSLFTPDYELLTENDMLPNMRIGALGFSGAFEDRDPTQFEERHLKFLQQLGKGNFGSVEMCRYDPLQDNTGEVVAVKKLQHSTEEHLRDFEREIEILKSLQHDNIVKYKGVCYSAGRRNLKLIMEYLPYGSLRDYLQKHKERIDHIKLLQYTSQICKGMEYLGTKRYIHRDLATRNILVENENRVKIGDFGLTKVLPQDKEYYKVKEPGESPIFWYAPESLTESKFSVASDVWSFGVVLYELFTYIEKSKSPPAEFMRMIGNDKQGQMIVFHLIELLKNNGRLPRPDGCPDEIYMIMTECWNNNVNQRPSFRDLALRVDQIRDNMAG
MERTK, sequence (Q12866 whole entry, looked up): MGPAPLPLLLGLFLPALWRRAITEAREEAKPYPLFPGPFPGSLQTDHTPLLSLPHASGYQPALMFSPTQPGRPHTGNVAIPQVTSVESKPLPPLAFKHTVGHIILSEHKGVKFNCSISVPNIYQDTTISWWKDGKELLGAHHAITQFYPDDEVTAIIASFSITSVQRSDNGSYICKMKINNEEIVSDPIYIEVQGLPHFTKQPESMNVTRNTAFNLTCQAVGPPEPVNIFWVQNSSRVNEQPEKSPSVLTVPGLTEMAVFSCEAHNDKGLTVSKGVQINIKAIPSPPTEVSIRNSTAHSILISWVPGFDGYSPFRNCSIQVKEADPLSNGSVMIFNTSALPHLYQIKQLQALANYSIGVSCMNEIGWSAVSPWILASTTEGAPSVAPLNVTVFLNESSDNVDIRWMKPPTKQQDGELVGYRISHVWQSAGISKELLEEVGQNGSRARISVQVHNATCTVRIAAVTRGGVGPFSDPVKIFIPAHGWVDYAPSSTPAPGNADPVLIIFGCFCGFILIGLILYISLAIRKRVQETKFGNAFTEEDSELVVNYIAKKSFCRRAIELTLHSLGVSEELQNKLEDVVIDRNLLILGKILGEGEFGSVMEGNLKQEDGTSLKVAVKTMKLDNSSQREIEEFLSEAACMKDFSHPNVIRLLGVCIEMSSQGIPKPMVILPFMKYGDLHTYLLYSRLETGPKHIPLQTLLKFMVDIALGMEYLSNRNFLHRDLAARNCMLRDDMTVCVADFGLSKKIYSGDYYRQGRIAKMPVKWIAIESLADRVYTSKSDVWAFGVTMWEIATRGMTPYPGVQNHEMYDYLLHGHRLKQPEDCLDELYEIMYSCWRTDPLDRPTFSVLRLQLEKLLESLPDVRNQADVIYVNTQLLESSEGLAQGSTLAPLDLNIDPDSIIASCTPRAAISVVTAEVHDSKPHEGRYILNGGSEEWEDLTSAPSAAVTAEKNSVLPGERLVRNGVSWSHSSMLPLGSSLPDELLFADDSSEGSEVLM
Fyn, sequence (P06241 whole entry, looked up): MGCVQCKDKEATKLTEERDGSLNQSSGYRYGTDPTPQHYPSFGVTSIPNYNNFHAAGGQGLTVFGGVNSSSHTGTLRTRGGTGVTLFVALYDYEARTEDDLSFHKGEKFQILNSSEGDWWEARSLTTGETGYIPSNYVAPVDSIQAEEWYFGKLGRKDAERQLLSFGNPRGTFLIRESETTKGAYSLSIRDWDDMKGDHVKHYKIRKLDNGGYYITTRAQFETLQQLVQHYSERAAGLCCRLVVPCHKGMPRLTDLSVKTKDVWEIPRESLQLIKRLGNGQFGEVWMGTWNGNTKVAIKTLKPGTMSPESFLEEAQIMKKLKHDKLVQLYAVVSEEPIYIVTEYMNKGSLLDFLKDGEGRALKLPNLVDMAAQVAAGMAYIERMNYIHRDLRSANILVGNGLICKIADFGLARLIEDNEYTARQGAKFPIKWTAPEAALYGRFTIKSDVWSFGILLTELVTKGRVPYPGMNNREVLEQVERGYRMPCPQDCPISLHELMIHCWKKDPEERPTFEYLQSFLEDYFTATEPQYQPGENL
EPHB2, sequence (P29323 whole entry, looked up): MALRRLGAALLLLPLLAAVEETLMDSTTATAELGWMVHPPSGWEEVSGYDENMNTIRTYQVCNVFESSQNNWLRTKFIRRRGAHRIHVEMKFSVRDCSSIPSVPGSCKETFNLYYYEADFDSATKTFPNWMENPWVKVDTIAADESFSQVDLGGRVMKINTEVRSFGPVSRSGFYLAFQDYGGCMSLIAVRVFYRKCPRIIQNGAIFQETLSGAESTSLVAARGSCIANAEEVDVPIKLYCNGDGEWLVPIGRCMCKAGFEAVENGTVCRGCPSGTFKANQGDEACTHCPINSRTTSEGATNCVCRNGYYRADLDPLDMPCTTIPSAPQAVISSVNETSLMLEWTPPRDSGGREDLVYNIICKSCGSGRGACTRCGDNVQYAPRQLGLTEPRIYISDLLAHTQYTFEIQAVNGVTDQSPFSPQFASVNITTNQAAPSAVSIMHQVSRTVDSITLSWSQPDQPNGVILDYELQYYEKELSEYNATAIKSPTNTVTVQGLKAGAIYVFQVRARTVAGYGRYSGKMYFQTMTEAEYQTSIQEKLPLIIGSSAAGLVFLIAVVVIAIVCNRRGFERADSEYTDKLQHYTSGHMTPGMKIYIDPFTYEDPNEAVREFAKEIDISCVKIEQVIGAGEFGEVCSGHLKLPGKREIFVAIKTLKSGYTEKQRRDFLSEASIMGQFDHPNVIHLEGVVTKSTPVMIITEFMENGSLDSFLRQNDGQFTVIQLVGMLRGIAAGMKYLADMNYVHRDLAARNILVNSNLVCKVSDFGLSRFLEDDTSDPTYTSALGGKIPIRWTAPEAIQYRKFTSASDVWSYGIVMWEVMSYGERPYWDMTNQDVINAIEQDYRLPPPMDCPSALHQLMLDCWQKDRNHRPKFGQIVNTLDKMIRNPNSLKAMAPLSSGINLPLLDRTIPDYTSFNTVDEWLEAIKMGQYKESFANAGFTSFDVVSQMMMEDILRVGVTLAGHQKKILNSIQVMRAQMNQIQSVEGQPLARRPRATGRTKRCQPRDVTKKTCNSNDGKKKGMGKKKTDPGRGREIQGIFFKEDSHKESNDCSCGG

Row | Sequence | phosphorylation enrichment (Hck) | phosphorylation enrichment (EPHB2) | phosphorylation enrichment (Fer (mouse)) | phosphorylation enrichment (Fyn) | phosphorylation enrichment (EPHB1) | phosphorylation enrichment (Fes) | phosphorylation enrichment (AncSZ) | phosphorylation enrichment (FGFR1) | phosphorylation enrichment (c-Abl (mouse)) | phosphorylation enrichment (FGFR3) | phosphorylation enrichment (Jak2) | phosphorylation enrichment (c-Src) | phosphorylation enrichment (MERTK) | SH2 binding enrichment (c-Src SH2) | SH2 binding enrichment (SHP2-C SH2) | SH2 binding enrichment (Grb2 SH2)
1 | ARQEEYSAMRD [KRAS_Y64_G60R] | 0.488 | 0.563 | 0.387 | 0.429 | 0.508 | 0.902 | 0.962 | 0.518 | 0.837 | 0.584 | 0.896 | 0.497 | 0.497 | 0.804 | 0.729 | 0.824
2 | ASLEAYCKHKY [RXRA_Y403] | 0.455 | 0.501 | 0.424 | 0.503 | 0.53 | 1.01 | 0.964 | 0.472 | 0.727 | 0.658 | 0.799 | 0.411 | 0.392 | 0.548 | 0.733 | 0.831
3 | ASMAKYYASEI [ACADSB_Y372] | 0.515 | 0.32 | 0.38 | 0.491 | 0.404 | 0.761 | 0.701 | 0.483 | 0.717 | 0.576 | 0.92 | 0.595 | 0.731 | 0.575 | 0.554 | 0.849
4 | ATGMEYLASQK [FGFR2_Y616_R612T] | 0.474 | 0.495 | 0.426 | 0.559 | 0.479 | 0.794 | 0.736 | 0.464 | 0.58 | 0.833 | 0.68 | 0.44 | 0.423 | 0.465 | 0.571 | 1.01
5 | ATPKGYERDAS [OTC_Y223_P225R] | 0.399 | 0.522 | 0.518 | 0.442 | 0.358 | 0.68 | 0.591 | 0.462 | 0.421 | 0.471 | 0.551 | 0.369 | 0.447 | 0.444 | 0.562 | 0.767
6 | ATQDDYVLEVR [PTPRZ1_Y2179] | 0.56 | 0.62 | 0.497 | 0.626 | 0.632 | 1.23 | 1.45 | 0.552 | 0.766 | 0.701 | 1.08 | 0.601 | 0.492 | 0.505 | 0.719 | 0.856
7 | ATRKAYGQALA [TKT_Y321] | 0.412 | 0.348 | 0.36 | 0.335 | 0.31 | 0.612 | 0.468 | 0.391 | 0.415 | 0.395 | 0.481 | 0.366 | 0.432 | 0.622 | 0.594 | 0.965
8 | AVAFVYYKSIG [ADGRL4_Y301] | 0.463 | 0.585 | 0.53 | 0.458 | 0.615 | 1.29 | 1.18 | 0.451 | 0.67 | 0.641 | 1.2 | 0.489 | 0.401 | 0.76 | 0.758 | 1.02
9 | AVRFIYTIDGS [DCX_Y105_G100A_YF] | 0.67 | 0.552 | 0.529 | 1.56 | 0.574 | 1.28 | 1.32 | 0.453 | 0.706 | 0.697 | 1.27 | 1.55 | 0.424 | 0.723 | 0.988 | 0.928
10 | AVRVFYRKCPR [EPHB2_Y194] | 0.512 | 0.463 | 0.518 | 0.464 | 0.345 | 0.655 | 0.948 | 0.428 | 0.78 | 0.645 | 0.7 | 0.557 | 0.517 | 0.417 | 0.529 | 0.611
11 | AWVARYIFKRL [LPCAT3_Y348] | 0.48 | 0.472 | 0.482 | 0.502 | 0.555 | 1.25 | 1.26 | 0.351 | 0.748 | 0.604 | 1 | 0.346 | 0.424 | 1 | 1.1 | 1.05
12 | CCNHPYLINGA [CHD7_Y1256] | 0.519 | 0.495 | 0.419 | 0.57 | 0.352 | 0.851 | 0.651 | 0.443 | 0.538 | 0.552 | 0.641 | 2.72 | 0.461 | 0.541 | 0.704 | 0.804
13 | CDFKKYGKGLR [ZNF445_Y433_Y428C_YF] | 0.357 | 0.413 | 0.31 | 0.479 | 0.409 | 0.808 | 0.647 | 0.432 | 0.64 | 0.549 | 0.718 | 0.441 | 0.396 | 0.618 | 0.934 | 1.06
14 | CEDGTYSPEIS [PTDSS1_Y424] | 0.595 | 0.578 | 0.589 | 0.512 | 0.649 | 1.33 | 1.2 | 0.5 | 0.838 | 0.824 | 1.33 | 0.663 | 0.486 | 0.519 | 1.13 | 0.835
15 | CEHRGYLFLAI [TEK_Y897_YF] | 0.45 | 0.69 | 0.508 | 0.443 | 0.502 | 0.906 | 0.951 | 0.545 | 0.813 | 0.628 | 1.01 | 0.496 | 0.37 | 0.767 | 1.19 | 1.49
16 | CERLPYDANKW [FLT1_Y815_S818N] | 0.43 | 0.602 | 0.615 | 0.506 | 0.626 | 1.16 | 1.11 | 0.422 | 0.804 | 0.817 | 1.01 | 0.477 | 0.415 | 0.492 | 0.754 | 0.619
